Data on seven molecules can be found in publication PMC6212772.

The target of data set [1] is T1, GST-ZBTB24 zinc finger domain (UniProt O43167 294-512). Nature of the data set: EMSA.
Data set [2] deals with T1, GST-ZBTB24 zinc finger domain. As to the kind of experiment: EMSA. This is another data set of the same source. Background: A gel shift assay detects complexes by their altered migration in electrophoresis.
Data set [3] shares this target. As to the kind of experiment: competition.

T1 sequence (O43167 294-512): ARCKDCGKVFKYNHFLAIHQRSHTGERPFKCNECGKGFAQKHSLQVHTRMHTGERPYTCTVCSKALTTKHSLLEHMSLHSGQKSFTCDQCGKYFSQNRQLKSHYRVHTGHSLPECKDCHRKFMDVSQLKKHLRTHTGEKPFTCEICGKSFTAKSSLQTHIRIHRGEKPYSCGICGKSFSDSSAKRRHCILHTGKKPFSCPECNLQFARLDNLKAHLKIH

B1: GAPDH promoter (dsDNA)
DNA 1: GAGCCTGGCGGGAGGCGGGGTCCGAGTCACCGCCTGCCGC
DNA 2: GCGGCAGGCGGTGACTCGGACCCCGCCTCCCGCCAGGCTC
Regarding B1, the binding result in data set [1] was “no binding”.

B2: CDCA7 promoter (dsDNA)
DNA 1: GGCCGTTACCACAGCTTGCAGGACCTGTGTCCCAACGCGG
DNA 2: CCGCGTTGGGACACAGGTCCTGCAAGCTGTGGTAACGGCC
For the molecule B2, the binding result in data set [1] was “binds”.

B3: CAMKMT promoter wt (dsDNA)
DNA 1: GGGAAGAAGTTGGCAGGTCCTGGCAGGGGACGAGCTGCGGC
DNA 2: GCCGCAGCTCGTCCCCTGCCAGGACCTGCCAACTTCTTCCC
As for B3, the binding result in data set [2] is “binds”.

B4: CAMKMT promoter mut1 (dsDNA)
DNA 1: GGGAAGAAGTTGGCAGGTACTGGCAGGGGACGAGCTGCGGC
DNA 2: GCCGCAGCTCGTCCCCTGCCAGTACCTGCCAACTTCTTCCC
As for B4, the binding result in data set [3] is “no binding”.

B5: CAMKMT promoter mut2 (dsDNA)
DNA 1: GGGAAGAAGTTGGCAGATACTGGCAGTGGACGAGCTGCGGC
DNA 2: GCCGCAGCTCGTCCACTGCCAGTATCTGCCAACTTCTTCCC
For the molecule B5, the binding result in data set [3] is given as “no binding”.

B6: OSTC promoter (dsDNA)
DNA 1: GTTAGAAGTCCCGCAGGTCCTTGAAGGTACACAAATCACC
DNA 2: GGTGATTTGTGTACCTTCAAGGACCTGCGGGACTTCTAAC
On to B6, for which, in data set [1], the binding result was “binds”.

B7: CDCA7 outside promoter motif (dsDNA)
DNA 1: GGGTGCTGGACGCAGGCGGGCGCGGGCCGACCCTCTCCAA
DNA 2: TTGGAGAGGGTCGGCCCGCGCCCGCCTGCGTCCAGCACCC
B7: the binding result in data set [1] is given as “no binding”.
